Values belong to the molecule of their own block, whether it stands above or below them.
Experiments:
Experiment in all cases: SEC
[1] = molecular target: mtGGGPS_W141A (Methanothermobacter thermautotrophicus)
[2] = molecular target: GGGPS of Nitrososphaera viennensis (nvGGGPS) (Nitrososphaera viennensis)
[3] = molecular target: mtGGGPS_W141H (Methanothermobacter thermautotrophicus)
SEC = molecular target: the molecule itself

Molecule: mtGGGPS_W141H (enzyme)
- stoichiometry N [3]: 6

B1: wild-type Methanothermobacter thermautotrophicus GGGPS (mtGGGPS) (enzyme)
chain: MKVEDYFHDILRERKIHLTLIDPEEQTPEEAVEIARAAIRGGTDGIMLGGSTTDSSELDNTARALRENIDVPIILFPGNTTGVSRYADAIFFMSLLNSTNPYWIIGAQALGAATVKKMGIEALPMGYLVVEPGGTVGWVGDTKPVPRNKPDIAAAYAMAAEFLGMRLFYLEAGSGAPEHVPEEMIALVKRCTDQILIVGGGIRSGEDAARVAGAGADVVVTGTVVENSDNVEDKIREIVEGMGSV
- stoichiometry N (SEC): 6

Continued, values first:

- stoichiometry N [1]: 2
Molecule: mtGGGPS_W141A (enzyme)

- stoichiometry N [2]: 6
Molecule: GGGPS of Nitrososphaera viennensis (nvGGGPS) (enzyme)
